The results in this text go back to patent US20230374132A1 (Innovent, published 2023).

Numbering of substitutions follows the chain as printed. Numbers in names are those of the source.

Test [1] deals with T1, human CD3 E&D complex protein (Sino Biological Inc., CT026H0323H) (human, UniProt P07766 23-126; P04234 22-105).
T1 construct: bought heterodimer; also called human CD3 protein (CT026H0323H)
The experiment in a line: BLI, antibody on sensor.

Test [2] deals with T2, human CD3E&G complex (Sino Biological Inc., CT041-H0305H) (human, UniProt P07766 23-126; P09693 23-116).
T2 construct: bought heterodimer; also called human CD3E&G antigen
T2 sequence (P07766 23-126, chain 1 of 2): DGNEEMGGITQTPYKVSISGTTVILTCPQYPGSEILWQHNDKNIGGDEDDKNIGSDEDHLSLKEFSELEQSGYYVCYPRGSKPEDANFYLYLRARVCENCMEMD
T2 sequence (P09693 23-116, chain 2 of 2): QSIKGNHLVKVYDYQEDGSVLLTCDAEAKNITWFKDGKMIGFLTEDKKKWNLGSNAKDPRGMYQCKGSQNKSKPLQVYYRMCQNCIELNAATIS
Description: BLI, antibody on sensor.

Test [3] addresses T3, human CD3 complex on Jurkat cells (human, UniProt P07766 23-207; P04234 22-171; P09693 23-182).
T3 construct: whole, on cells; natural CD3 complex of Jurkat T cells (also used here for CD3 on T cells of human PBMC); also called human CD3 at the cell level; CD3 on T cells
Description: flow cytometry on Jurkat cells (human CD3 complex), method of Example 3.2. As to the method:
Jurkat cells are immortalized human T lymphocytes, which express human CD3 complex. The cell line is used to detect the binding of the antibody to the cell. The detailed operation was as follows: Jurkat cells (Promega, J1621) was inoculated into U-shaped 96-well plate, 2×10⁵ for each well. The antibodies to be detected at a series of concentration gradients (the initial concentration of antibody molecule is 500 nM, 3 folds serial dilution) was added into the corresponding cell well, incubated at 4° C. for 30 minutes, and then PBS was used to wash out the unbound part. The sheep anti-human Fc PE fluorescent second antibody (Southern Biotech, J2815-5H87B) was added, then incubated at 4° C. for 15 minutes. and detected by flow cytometry ([…] BD). […] Some of these antibodies were selected to make a further binding curve at cell level.

T3 sequence (P07766 23-207, chain 1 of 3): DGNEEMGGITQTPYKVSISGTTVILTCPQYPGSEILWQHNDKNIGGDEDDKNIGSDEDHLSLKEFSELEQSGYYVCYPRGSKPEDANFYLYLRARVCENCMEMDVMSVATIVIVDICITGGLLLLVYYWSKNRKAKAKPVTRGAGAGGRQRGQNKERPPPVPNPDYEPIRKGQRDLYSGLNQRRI
T3 sequence (P04234 22-171, chain 2 of 3): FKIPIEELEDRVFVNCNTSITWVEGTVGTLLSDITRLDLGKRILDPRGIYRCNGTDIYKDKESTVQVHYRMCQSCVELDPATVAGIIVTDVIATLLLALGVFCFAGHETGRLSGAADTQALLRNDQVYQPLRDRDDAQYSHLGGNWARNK
T3 sequence (P09693 23-182, chain 3 of 3): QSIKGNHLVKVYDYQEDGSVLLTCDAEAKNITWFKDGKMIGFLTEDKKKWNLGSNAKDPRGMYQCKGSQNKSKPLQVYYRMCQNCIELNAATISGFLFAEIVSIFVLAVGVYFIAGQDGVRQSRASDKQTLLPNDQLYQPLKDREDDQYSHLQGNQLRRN
T1 sequence (P07766 23-126, chain 1 of 2): as the sequence (P07766 23-126, chain 1 of 2) above
T1 sequence (P04234 22-105, chain 2 of 2): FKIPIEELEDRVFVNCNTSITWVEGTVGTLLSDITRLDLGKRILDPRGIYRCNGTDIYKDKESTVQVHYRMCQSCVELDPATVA

B1: hzsp34.95 (antibody, human IgG1, lambda, L234A L235A, V domains shown)
VH: EVQLVESGGGLVQPGGSLKLSCAASGFTFSGSAMNWVRQASGKGLEWVGRIRSKYNNYATYYADSVKDRFTISRDDSKSTLYLQMNSLKTEDTAVYYCARHGNFGQSYVSWFAYWGQGTTVTVSS
VL: QAVVTQEPSLTVSPGGTVTLTCRSSTGAVTTSNYANWVQQKPGQAPRGLIGGTNKRAPGVPARFSGSLLGDKAALTLLGAQPEDEAEYYCALWYSNLWVFGQGTKLTVLG
notes: CDR mutant of hzsp34.24; IgG1 L234A L235A, lambda
In the case of B1, the binding result in test [1] is listed as “no binding”; in test [2] it was “no binding”; in test [3], “no binding (tested: 900 (no unit printed on the sheet))”.

B2: hzsp34.96 (antibody, human IgG1, lambda, L234A L235A, V domains shown)
VH: B1 VH with S30N, G31T, S32Y, R52S, S53L
VL: B1 VL
notes: as for B1
Turning to B2, the binding result in test [1] is recorded as “no binding”; in test [2], “no binding”; in test [3] it was “no binding (tested: 900 (no unit printed on the sheet))”.
